{
  "source": "paper PMC6668441",
  "about": "“Comparative Study of Subcutaneous and Orthotopic Mouse Models of Prostate Cancer: Vascular Perfusion, Vasculature Density, Hypoxic Burden and BB2r-Targeting Efficacy” (Scientific Reports, 2019)",
  "key": {"[1]": {"test": "Radiochemical stability in stabilizing buffers (RP-HPLC)", "type": "physicochemical", "details": "PBS, 0.37 MBq in 1 mL, 4 °C, 72 h", "experimental": "Briefly, 0.37 MBq of radiolabeled compounds were incubated with 1 mL of: A) PBS; B) ascorbic acid in 0.9% sodium chloride solution (40 mg/ml); and C) Selenomethionine (0.2 mg/ml) and ascorbic acid (40 mg/ml) in 0.9% sodium chloride solution at 4 °C for 24, 48 and 72 h. The stability of the radioconjugate at each time point was calculated based on the integration of the RP-HPLC chromatograms.\n(§1) Peptide synthesis was performed using an automated solid-phase peptide synthesizer employing traditional Fmoc chemistry and using a Rink Amide resin. Briefly, the resin (100 µmol of the resin substituted peptide anchors) was deprotected using piperidine, resulting in the formation of a primary amine from which the C-terminus of the growing peptide was anchored.\nThe Fmoc protected amino acids (300 µmol) with appropriate orthogonal protection were activated with HBTU and sequentially added to the resin. […] All conjugate were peak purified to • 95% purity and quantified by RP-HPLC prior to in vitro/in vivo investigations. […]\n(§2) The partition coefficient was determined for the 177Lu-labeled conjugate. […] Aliquots of 100 µL were taken from each layer and the radioactivity of each was quantified by a Ȗ-counter. […]"}, "physchem": {"test": "physchem", "type": "physicochemical", "details": "pH 7.4", "experimental": "as §1\nThe Fmoc protected amino acids (300 µmol) with appropriate orthogonal protection were activated with HBTU and sequentially added to the resin. The resulting peptide was orthogonally deprotected and cleaved from the resin using a cocktail consisting of triisopropyl silane (0.1 mL), water (0.1 mL), 3,6-dioxa-1,8-octanedithiol (0.1 mL), trifluoroacetic acid (4.625 mL) and thioanisole (0.075 mL), respectively. The cleaved peptide was subsequently precipitated and washed using cold (0 °C) methyl-tert-butyl ether (10 mL×3). The crude conjugate was dried by a centrivap concentrator and weighed. ES-MS was used to determine the molecular mass of the prepared peptides. All conjugate were peak purified to • 95% purity and quantified by RP-HPLC prior to in vitro/in vivo investigations.\nHPLC Purification and Analysis Methodology […]\nas §2"}},
  "data": [
    {"smiles": "CSCC[C@H](NC(=O)[C@H](CC(C)C)NC(=O)[C@H](Cc1c[nH]cn1)NC(=O)CNC(=O)[C@@H](NC(=O)[C@H](C)NC(=O)[C@H](Cc1c[nH]c2ccccc12)NC(=O)[C@H](CCC(N)=O)NC(=O)CCOCCOCCOCCOCCNC(=O)[C@@H](CO)NC(=O)[C@@H](CO)NC(=O)[C@@H](CO)NC(=O)[C@@H](CO)NC(=O)[C@@H](CO)NC(=O)CN1CCN(CC(=O)O)CCN(CC(=O)O)CCN(CC(=O)O)CC1)C(C)C)C(N)=O", "note": "[[^177Lu]Lu-DOTA-SP714, metal not drawn]", "values": [
      {"measurement": "radiolytic degradation", "setting": "[1]", "value": 39.9, "unit": "%"},
      {"measurement": "logD", "setting": "physchem", "value": "-2.2 ± 0.1"}
    ]}
  ]
}
